These results are taken from the nanobody polyreactivity screen of Harvey et al. (2022).

A short description of this series: yeast display, Sf9 membrane polyspecificity reagent, FACS + sequencing; frameworks hold sequencing errors. A digest of the protocol: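 In a synthetic yeast display library (Saccharomyces cerevisiae BJ5465), nanobody expression was induced with galactose for 36–48 hours. FACS gates were set low and high (top ~1%) using anti-HA fluorescence for expression and streptavidin fluorescence for binding of the Sf9 membrane reagent. Each polyreactivity label is drawn from the gate of origin.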
For the sequence “QVQLVESGGGLVQAGGSLRLSCAASGSNFSFYAMGWYRQAPGKERELVAAISWSGGTTYYADSVKGRFTISRDNAKNTVYLQMNSLKPEDTAVYYCAASEYDGYGGYYWGQGSQVTVSS”, the “polyreactivity (PSR sort gate)” value is “low polyreactivity”.

On to “QVQLVESGGGLVQAGGSLRLSCAASGSNFTPYAMGWYRQAPGKERELVAAISGSGGSTRYADSVKARYTISRDNAKNTVYLQMNSLKPEDTAVYYCAADRYTYIWYHIYDYWGQGTQVTVSS”, for which the “polyreactivity (PSR sort gate)” value was “low polyreactivity”.

As for “QVQLVESGGGLVQAGGSLRLSCAASGSNFVGNAMGWYRQAPGKERELFAAISSGGSTYYADSVKGRFTISRDNAKNTVYLQLNSLKPEDTAVYYCAAYYVRRYSSRPKDDYWGQGTQVTVSS”, the “polyreactivity (PSR sort gate)” value is given as “low polyreactivity”.

For the sequence “QVQLVESGGGLVQAGGSLRLSCAASGSNFVWYVMGWYRQAPGKDRELVAAITWSAARTYYADSVKGRFTISRDNAKNTVYLQMNSLKPEDTAVYYCAADGYPLQLYNYWGQGTQVTVSS”, the “polyreactivity (PSR sort gate)” value is listed as “low polyreactivity”.

Take “QVQLVESGGGLVQAGGSLRLSCAASGSNFYFYAMGWYRQAPGKERELVAGITSSGASTYADSVKGRFTISRDNEKNTVYLQMNSLKPEDTAVYYCAAYYPLRKGYGYWGQGTQVTVSS”: the “polyreactivity (PSR sort gate)” value is reported as “high polyreactivity”.

“QVQLVESGGGLVQAGGSLRLSCAASGSNIYPNAMGWYRQEPGKEREFVAVISSGGSTYYADSVKGRFTISRDNAKNTVYLQMNSMKPEDTAVYYCAADRGTVSFLYSPRAVDYWGQGTQVTVSS”: the “polyreactivity (PSR sort gate)” value was “low polyreactivity”.

On to “QVQLVESGGGLVQAGGSLRLSCAASGSNLDYNAMGWSRQAPGKERELVAAISTGGRTNYADSVKGRFTISRDNAKNTVYLQMNSLKPDDTAVYYCAADTTTEITDTDYDYWGQGTQVTVSS”, for which the “polyreactivity (PSR sort gate)” value is reported as “low polyreactivity”.

As for “QVQLVESGGGLVQAGGSLRLSCAASGSNLLRYAMGWYRQAPGKERELVAAIRTIGASTNYADSVKGRYTISRDNAKNTVYLLMNSMKPEDTAVYYCNSYLAEVLPVGKGRLYDYWGQGTQVTVSS”, the “polyreactivity (PSR sort gate)” value is given as “low polyreactivity”.

Turning to “QVQLVESGGGLVQAGGSLRLSCAASGSNLVTNSMGWYRQAPGKERELVATITSSGTSTYYADSVKGRFTISRDNAKNTVYLQMNSLKPEDTAVYYCNADDQFAYVVYLWEYHIVQYDYWGQGTQVTVSS”, the “polyreactivity (PSR sort gate)” value is on record as “high polyreactivity”.

Turning to “QVQLVESGGGLVQAGGSLRLSCAASGSNSGYYVMGWYRQAPGKERELVAAITWRGGSTYYADSVKGRFTISRDNAKNTVYLQMNSLKPEDTAVYYCARSRYLWYTVPPKYGYWGQGTQVTVSS”, the “polyreactivity (PSR sort gate)” value is on record as “high polyreactivity”.

In the case of “QVQLVESGGGLVQAGGSLRLSCAASGSNVHYMGGERQAPGKERELVAGISWSGGSTYYADSVMGRFTISRDNAKNTVYLQMNSLKPEDTAVDYCAADYYAHQDYRFDYWGQGTQVTVSS”, the “polyreactivity (PSR sort gate)” value is “low polyreactivity”.

For “QVQLVESGGGLVQAGGSLRLSCAASGSNYRFYAMGWYRQAPGKERELVATISSSGGTTYYADSVKVRITISRDNAKNNVFLQMNSLKPEDTAVYYCAKDAFGWGRVYYYRSGYWGQGTQVTVSS”, the “polyreactivity (PSR sort gate)” value was “high polyreactivity”.

As for “QVQLVESGGGLVQAGGSLRLSCAASGSNYSSNAMGWYRQATGKERELVAAISRSGVTTYYADSVKGRFTISRDNAKNTVYLQMNSLKPEDSAVYYCAAQPYSRLYGRYLGFQYKYDYWGQGTQLTVSS”, the “polyreactivity (PSR sort gate)” value was “low polyreactivity”.

On to “QVQLVESGGGLVQAGGSLRLSCAASGSPFPYVMVWYRQAPGKERELVAAISQRTGSTYYADSVKGRFTISRDNAKNTVYLQMNSLKPEDTAVYYCAKPGYLRPSRYDYWGQGTQVTVSS”, for which the “polyreactivity (PSR sort gate)” value is reported as “high polyreactivity”.

On to “QVQLVESGGGLVQAGGSLRLSCAASGSPFRGYAMGWYRLAPGKEREFVAAISRRGGTTYYADSVKARFTISRDNAKNTGYLQMNSLKPEDTAVYYCNKVYYQHYLPVDYWGQGTQVTVSS”, for which the “polyreactivity (PSR sort gate)” value is reported as “high polyreactivity”.

Consider “QVQLVESGGGLVQAGGSLRLSCAASGSSFFSNAMGWYRQAPGKERELVASIRSGTRTNYADSVKGRFTISRDNAKNTVYLLMNILKPADTAVYYCAKKWGLDKHRIGHRRLDYWGQGTQVTVSS”, for which the “polyreactivity (PSR sort gate)” value is listed as “low polyreactivity”.

For “QVQLVESGGGLVQAGGSLRLSCAASGSSFHTYAMGWYRQAPGKERELVAAINRRTGGTYYADSVKGRFTISRDNAKTTVYLQMNSLKPEDTAVYYCATDWFSYRGGIFDSWGQGTQVTVSS”, the “polyreactivity (PSR sort gate)” value is given as “low polyreactivity”.

Take “QVQLVESGGGLVQAGGSLRLSCAASGSSFNGNAMGWYRQAPGKERELVAAISRKGGSTYYADSVKGRFTISRDNAKNTVYLQMNSLKPEDTAVYYCATDLTVYYSYYWMYWGQGTQVTVSS”: the “polyreactivity (PSR sort gate)” value is “low polyreactivity”.

For the sequence “QVQLVESGGGLVQAGGSLRLSCAASGSSFPVNGIGWYRQAPGKERELVAVITDSDGSTYYADSVKGRFTISRDNAKNTVYLQMNSLKPEDTAVYYCAADDYAYSYGYWLTYDYWGQGTQVTVSS”, the “polyreactivity (PSR sort gate)” value is on record as “low polyreactivity”.

“QVQLVESGGGLVQAGGSLRLSCAASGSSFRVYAMGWSRQAPGKERELVASISRRGGSTYYADSVKGRFTISRDNAKTTVYIQMNSLKPEDTAVYYCNVPYYSFRDVSSYYSGQGTQVTVSS”: the “polyreactivity (PSR sort gate)” value is “high polyreactivity”.

On to “QVQLVESGGGLVQAGGSLRLSCAASGSSFSRYDMGWYRQAPGKERELVATITRPGRTYYADSVKGRFTISRDNATKTVYLQMNSLKPEDTAVYYCAKDAGKTYYVDGSLEYDSWGQGTQVTVSS”, for which the “polyreactivity (PSR sort gate)” value was “low polyreactivity”.

As for “QVQLVESGGGLVQAGGSLRLSCAASGSSFTYYTMGWYRQAPAKERELVAAISWSGGRTYYADSVTGRFTISRDNAKNTVYLQMNSLKPEDTAVYYCAAGPAPGHDSWGQGTQVTESS”, the “polyreactivity (PSR sort gate)” value is reported as “high polyreactivity”.

As for “QVQLVESGGGLVQAGGSLRLSCAASGSSFVYNVMGWYRQAPGKERELVAAIRWRGGSTYADSVKGRFTISRDNAKNTVYLQMNSLKPEDTAVYYCAAGIPRYWYAGHYDYWGQGSQVTVSS”, the “polyreactivity (PSR sort gate)” value is “low polyreactivity”.

Regarding “QVQLVESGGGLVQAGGSLRLSCAASGSSIYSYAMGWYRQEPGKERELVAAITTSGGSTYYADSVKGRFTISRDNAKNTDYLQMNSLKPEDTAVYYCNAYFIYEGGWYYKAQYDYWGQGTQVTVSS”, the “polyreactivity (PSR sort gate)” value is listed as “low polyreactivity”.

On to “QVQLVESGGGLVQAGGSLRLSCAASGSSLWENAMGWYRQAPGKERQLVATISVSGGGTYYADSVKGRFTISRDNAKNTVYLQMTSLKPEDTAVYYCTARYGNESQGWADYWGQGTQVTVSS”, for which the “polyreactivity (PSR sort gate)” value is reported as “low polyreactivity”.

Regarding “QVQLVESGGGLVQAGGSLRLSCAASGSSLYYNAMGWYRQAPGKERELVAAISWSGGSTYYADSVKGRFTISRDNAKNTVYLQMNSLKPEDTAVSYCAADQSTVLDVGSWGQGTQVTVSS”, the “polyreactivity (PSR sort gate)” value was “low polyreactivity”.

As for “QVQLVESGGGLVQAGGSLRLSCAASGSSVSYYAMGWYRQAPGKERELVAAISDNGDSTYYADSVKGRFTISRDNAKNTVYLQMNSLKPEDTAVYYCDKRYRSYGKSSKRRYYYWGQGTQVTVSS”, the “polyreactivity (PSR sort gate)” value is given as “low polyreactivity”.

As for “QVQLVESGGGLVQAGGSLRLSCAASGSTCDTNVMGWYRQAPGKERELVAAITTSSSRTYYADSVKGRFTISRDNAKNTGYLQMNSLKPEDTAVYDCAARIHGSWSFDYWGQGTQVTVSS”, the “polyreactivity (PSR sort gate)” value is “low polyreactivity”.

On to “QVQLVESGGGLVQAGGSLRLSCAASGSTCERYAMGWSRQAPGKERELVAVISYRGTSTYYADSVKGRFTISRDNAKNTVYLQMNSLKAEDTAVYDCAAEPYRTVTAYRYSLYWYNYWGQGTQVTVSS”, for which the “polyreactivity (PSR sort gate)” value is “high polyreactivity”.

Regarding “QVQLVESGGGLVQAGGSLRLSCAASGSTCFHYSMGWYRQAPGKERELVAAITGTGRTTYADSVKGRFTISRDNAKTTVYLQMNSLKPEDTAVYYCAADVNYYQHRLYYWGQGTQVTVSS”, the “polyreactivity (PSR sort gate)” value is listed as “low polyreactivity”.

“QVQLVESGGGLVQAGGSLRLSCAASGSTCTGYTMGWYRQAPGNERELVAAITYRGGSTYYADSVKGRFTISRDNAKNTVYLQKNSLKPEETAVYYCAAVPEYYEYSPYDYWGQGTQVTVSS”: the “polyreactivity (PSR sort gate)” value is “low polyreactivity”.

For the sequence “QVQLVESGGGLVQAGGSLRLSCAASGSTDRYYVMGWYRQAPGKERDLVAGISYRGGTTYYADSVKGRFTISRDNAKNTVYLQMNRLKPEDTAVYYCNAETAAAQASYDRLYVLLDYWGQGTQVTVSS”, the “polyreactivity (PSR sort gate)” value is “low polyreactivity”.

Consider “QVQLVESGGGLVQAGGSLRLSCAASGSTDSNAMGWYRQAPGKERELVAAISGTGSRTYYADSVKGRFTISRDNAKNTVYLQMNSLKPEDTAVYYCAAYSGYYRPRYNYWGQGTQVTVSS”, for which the “polyreactivity (PSR sort gate)” value was “high polyreactivity”.

In the case of “QVQLVESGGGLVQAGGSLRLSCAASGSTFAANAMGWYRQAPGKERELVAAITSSGGSTFYADSVKGRFTISRDNAKNTVYLQMNSLKPEDTAVYYCNKDIERYVRIYDSWGQGTQVTVSS”, the “polyreactivity (PSR sort gate)” value is “low polyreactivity”.

As for “QVQLVESGGGLVQAGGSLRLSCAASGSTFAAYAMGWYRQAPGKERELVAAISATGGSTYYADSVKGRFTISRDNAKNTVYLQMNRLKPEDTAVYYCAADYPSWYGYRYYYWGQGTQVTVSS”, the “polyreactivity (PSR sort gate)” value is recorded as “high polyreactivity”.

As to “QVQLVESGGGLVQAGGSLRLSCAASGSTFAEYAMGWYREAPGKERELVADITWSGGSTYYADSVKGRFTISRDNAKNTVYLQMNSLKPDDTAVYYCYFWPVFYDFYLYGYWGQGTQVTVSS”, the “polyreactivity (PSR sort gate)” value is “low polyreactivity”.

Take “QVQLVESGGGLVQAGGSLRLSCAASGSTFAFNAMGWYRQAPGKERELVAAIYSDGSTDYADSVKGRFSISRDNAKNTVYLQMNSLKPEDPAVYYCADDWGWRYVLPVGWFRYGYWGQGTQVTVSS”: the “polyreactivity (PSR sort gate)” value was “low polyreactivity”.

Regarding “QVQLVESGGGLVQAGGSLRLSCAASGSTFAFNAMGWYRQAPGKERELVASISGSGSSTYYADSVKGRFTISRDNAKNTVYLQMNSMKPEVTAVYYCDARVGARVSPPRRHGRFNYWGQGTQVTVSS”, the “polyreactivity (PSR sort gate)” value is “high polyreactivity”.

Regarding “QVQLVESGGGLVQAGGSLRLSCAASGSTFAGNAMGWYRQAPGKERELVAAIDSSTGSTYYADSVKGRFTISRDNAKNTVYLQMNSLKPEDTPVYYCSREYYEGYEYWGLGTQVTVSS”, the “polyreactivity (PSR sort gate)” value is recorded as “low polyreactivity”.

Regarding “QVQLVESGGGLVQAGGSLRLSCAASGSTFAGNGMGWYRQAPGKERELVAGIDVTGGSTYYADSVKGRFTSSRDNAKNTVYLQMNSLKPEDTAVYYCNARYVYHSSFAGFDYWGQGTQVTVSS”, the “polyreactivity (PSR sort gate)” value was “low polyreactivity”.
